Reference: publication PMC3682517

Biological target: GST-AKAP79
Assay: phage display recovery; RII phage recovered by GST-AKAP79 compared with GST alone; pilot study (supplemental Fig. S1B)

Sequence of GST-AKAP79 (P24588 whole entry): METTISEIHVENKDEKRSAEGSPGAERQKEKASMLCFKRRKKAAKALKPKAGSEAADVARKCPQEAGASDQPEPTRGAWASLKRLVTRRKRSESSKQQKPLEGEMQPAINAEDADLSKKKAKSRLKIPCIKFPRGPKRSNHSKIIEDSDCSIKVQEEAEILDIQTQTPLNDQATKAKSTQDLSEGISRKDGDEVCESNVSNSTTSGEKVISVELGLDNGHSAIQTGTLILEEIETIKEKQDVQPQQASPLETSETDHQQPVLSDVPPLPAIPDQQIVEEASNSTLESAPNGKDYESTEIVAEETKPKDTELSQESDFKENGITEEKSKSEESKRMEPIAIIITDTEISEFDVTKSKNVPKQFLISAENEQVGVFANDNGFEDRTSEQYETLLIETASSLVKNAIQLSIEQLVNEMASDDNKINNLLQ
Sequence of RII phage: PKA RIIα (residues 1–45) displayed on the T7 capsid protein (P13861 2-404): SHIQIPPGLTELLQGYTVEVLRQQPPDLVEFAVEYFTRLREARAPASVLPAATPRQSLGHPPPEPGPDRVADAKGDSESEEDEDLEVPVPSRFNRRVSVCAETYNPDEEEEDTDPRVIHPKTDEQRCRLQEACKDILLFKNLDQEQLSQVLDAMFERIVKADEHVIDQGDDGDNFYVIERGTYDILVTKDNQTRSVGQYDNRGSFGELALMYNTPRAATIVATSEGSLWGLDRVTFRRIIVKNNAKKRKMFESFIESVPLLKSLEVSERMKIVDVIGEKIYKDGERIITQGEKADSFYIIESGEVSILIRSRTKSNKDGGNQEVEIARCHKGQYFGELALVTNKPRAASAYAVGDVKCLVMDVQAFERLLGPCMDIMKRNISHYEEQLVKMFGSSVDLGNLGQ

RII phage: PKA RIIα (residues 1–45) displayed on the T7 capsid protein (from UniProt P13861 1-45) (domain or fragment)
fold more phage recovered than with GST alone: 300 fold
